Results published in patent US20250313611A1.

Tests used:
[1] = target: SARS-COV-2 spike [change] trimer ([change]-foldon-His-Strep) (SARS-CoV-2 (Wuhan)) (UniProt P0DTC2)
[2] = target: spike protein of authentic SARS-COV-2 Delta virus (SARS-CoV-2 Delta); assay: cell-based or functional assay
[3] = target: spike protein of authentic SARS-COV-2 Omicron BA.1 virus (SARS-CoV-2 Omicron BA.1); assay: cell-based or functional assay
[4] = target: spike protein of authentic SARS-COV-2 Omicron BA.5 virus (SARS-CoV-2 Omicron BA.5); assay: cell-based or functional assay
[5] = target: spike protein of authentic SARS-COV-2 Omicron BA.2 virus (SARS-CoV-2 Omicron BA.2); assay: cell-based or functional assay
[6] = target: spike protein of authentic SARS-COV-2 614G virus (SARS-CoV-2 614G) (UniProt P0DTC2); assay: cell-based or functional assay

Substance: CB6 monoclonal antibody
- IC50 (read off the curve) [1]: 0.05 µg/mL

Substance: sotrovimab Biosimilar (PX-TA1637) (antibody)
- GM IC50 in ng/mL (GSD factor), live virus microneutralisation [2]: 141 ng/mL
- GM IC50 in ng/mL (GSD factor), live virus microneutralisation [3]: 1100 ng/mL
- GM IC50 in ng/mL (GSD factor), live virus microneutralisation [4]: > 10000 ng/mL
- GM IC50 in ng/mL (GSD factor), live virus microneutralisation [5]: 7150 ng/mL
- GM IC50 in ng/mL (GSD factor), live virus microneutralisation [6]: 205 ng/mL

Substance: Bebtelovimab Biosimilar (PX-TA1750) (antibody)
- GM IC50 in ng/mL (GSD factor), live virus microneutralisation [2]: 1.6 ng/mL
- GM IC50 in ng/mL (GSD factor), live virus microneutralisation [3]: 2.5 ng/mL
- GM IC50 in ng/mL (GSD factor), live virus microneutralisation [4]: 2.4 ng/mL
- GM IC50 in ng/mL (GSD factor), live virus microneutralisation [5]: 1.7 ng/mL
- GM IC50 in ng/mL (GSD factor), live virus microneutralisation [6]: 3.8 ng/mL

Substance: cilgavimab Biosimilar (PX-TA1033) (antibody)
- GM IC50 in ng/mL (GSD factor), live virus microneutralisation [2]: 28.8 ng/mL
- GM IC50 in ng/mL (GSD factor), live virus microneutralisation [3]: 156 ng/mL
- GM IC50 in ng/mL (GSD factor), live virus microneutralisation [5]: 21.2 ng/mL
- GM IC50 in ng/mL (GSD factor), live virus microneutralisation [6]: 30.9 ng/mL
